According to the supplement of paper PMC7877785:
± gives the uncertainty stated by the source.

Experiment: self-splicing fitness, log relative to wild type (ln ratio); higher = more splicing; Tetrahymena group I intron in knt gene, E. coli kanamycin selection, DiMSum; sequences stand for … in CUCUCU…GGAGGGAAAAGUUAUCAGGCAUGCACCUGGUAGCUAGUCUUUAAACCAAUAGAUUGCAUCGGUUUAAAAGGCAAGACCGUCAAAUUGCGGGAAAGGGGUCAACAGCCGUUCAGUACCAAGUCUCAGGGGAAACUUUGAGAUGGCCUUGCAAAGGGUAUGGUAAUAAGCUGACGGACAUGGUCCUAACCACGCAGCCAAGUCCUAAGUCAACAGAUCUUCUGUUGAUAUGGAUGCAGUUCACAGACUAAAUGUCGGUCGGGGAAGAUGUAUUCUUCUCAUAAGAUAUAGUCGGACCUCUCCUUAAUGGGAGCUAGCGGAUGAAGUGAUGCAACACUGGAGCCGCUGGGAACUAAUUUGUAUGCGAAAGUAUAUUGAUUAGUUUUGGAGUACUCGUGGUCG
Method in brief: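 A randomised library covering all eight P1ex-region intron nucleotides was built with the intron in the knt kanamycin-resistance gene on pET-22b(+) and held in E. coli BL21(DE3). Cells were grown overnight at 37°C or 30°C on LB agar, with or without 25 μg/mL kanamycin, plus 100 μg/mL carbenicillin, 50 μM IPTG and 0.2% rhamnose, and pooled colonies were amplicon-sequenced on an Illumina HiSeq 2500. DiMSum fitness is the error-weighted combination of wild-type-normalised replicate fold changes, kanamycin versus none.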

Row | Sequence | self-splicing fitness (ln) (30 °C) | self-splicing fitness (ln) (37 °C)
1 | UAUCAGCAAUAUUACGGACC | -2.13 ± 0.13 | -1.39 ± 0.15
2 | AUGGAGCAAUAUUACGUACG | -3.38 ± 0.47 | -2.58 ± 0.36
3 | GGCAAGCAAUAUUACGGUUA | -0.0834 ± 0.075 | 0.577 ± 0.074
4 | UCCUAGCAAUAUUACGCUCA |  | -2.48 ± 0.42
5 | GGAAAGCAAUAUUACGUACC | -2.13 ± 0.46 | -2.35 ± 0.49
6 | CUAUAGCAAUAUUACGUUAG | -2.54 ± 0.16 | -2.67 ± 0.19
7 | GUGAAGCAAUAUUACGUCCG | -0.484 ± 0.15 | -0.103 ± 0.17
8 | CAGGAGCAAUAUUACGCACA | -2.48 ± 0.24 | -1.88 ± 0.23
9 | ACUGAGCAAUAUUACGCAUG | -1.95 ± 0.14 | -2.23 ± 0.16
10 | UCUUAGCAAUAUUACGCGAC |  | -3.07 ± 0.32
11 | ACGUAGCAAUAUUACGGGUG | -2.67 ± 0.086 | -1.18 ± 0.085
12 | CUUCAGCAAUAUUACGCUCU | -3.79 ± 0.39 | 
13 | AGGAAGCAAUAUUACGGAGC | -2.78 ± 0.21 | -1.61 ± 0.3
14 | GCGUAGCAAUAUUACGCUGU | -3.16 ± 0.28 | 
15 | UCAUAGCAAUAUUACGCUAG | -3.15 ± 0.22 | -1.34 ± 0.2
16 | AGGUAGCAAUAUUACGCCUG | -0.743 ± 0.017 | -0.212 ± 0.035
17 | ACAAAGCAAUAUUACGAAAG | -1.59 ± 0.12 | -1.32 ± 0.14
18 | GUGAAGCAAUAUUACGGAAU | -1.06 ± 0.18 | -0.308 ± 0.18
19 | UUUCAGCAAUAUUACGAUAC | -2.17 ± 0.25 | -2.02 ± 0.26
20 | GAACAGCAAUAUUACGCUGG | -1.98 ± 0.28 | -1.3 ± 0.2
21 | CACAAGCAAUAUUACGGUGG | -1.99 ± 0.05 | -1.06 ± 0.062
22 | UUUUAGCAAUAUUACGCCGA | -1.15 ± 0.29 | -0.282 ± 0.32
23 | UAGAAGCAAUAUUACGUCCU | -0.903 ± 0.12 | -0.0829 ± 0.17
24 | UGUCAGCAAUAUUACGGUCA | -0.432 ± 0.071 | 0.606 ± 0.091
25 | CAAGAGCAAUAUUACGUAAC |  | -2.94 ± 0.43
26 | UCAUAGCAAUAUUACGUCUG | -1.16 ± 0.081 | -0.895 ± 0.1
27 | GUCGAGCAAUAUUACGAAAA |  | -2.58 ± 0.41

Row | Sequence | self-splicing fitness (ln) (30 °C) | self-splicing fitness (ln) (37 °C)
28 | UCUCAGCAAUAUUACGAAUU | -3.12 ± 0.13 | -1.77 ± 0.15
29 | ACUGAGCAAUAUUACGUUGA | -3.25 ± 0.15 | -2.48 ± 0.15
30 | UCUUAGCAAUAUUACGGCGC | -2.61 ± 0.39 | 
31 | UCUGAGCAAUAUUACGAGCU | -2.99 ± 0.24 | -2.23 ± 0.47
32 | UUGUAGCAAUAUUACGCCGG | -0.988 ± 0.16 | -0.179 ± 0.27
33 | CGAAAGCAAUAUUACGUCUG | -0.362 ± 0.066 | 0.364 ± 0.078
34 | ACCGAGCAAUAUUACGCCCU | -2.6 ± 0.25 | 0.248 ± 0.21
35 | CGUAAGCAAUAUUACGGAAC |  | -1.39 ± 0.39
36 | CCUCAGCAAUAUUACGUUAU | -3.74 ± 0.17 | -2.49 ± 0.17
37 | AUUGAGCAAUAUUACGAAAU | -3.34 ± 0.12 | -2.88 ± 0.16
38 | ACCUAGCAAUAUUACGGGGU | -3.47 ± 0.16 | -2.61 ± 0.17
39 | GAACAGCAAUAUUACGCAGG | -3.74 ± 0.14 | -2.7 ± 0.11
40 | ACGUAGCAAUAUUACGCGGU | -3.63 ± 0.16 | -2.33 ± 0.17
41 | UCAAAGCAAUAUUACGCGGA | -2.87 ± 0.13 | -1.37 ± 0.11
42 | GGAAAGCAAUAUUACGAAAU | -1.52 ± 0.3 | -1 ± 0.41
43 | UCGAAGCAAUAUUACGACCA | -1.16 ± 0.15 | -1.09 ± 0.18
44 | UUCAAGCAAUAUUACGUAAA | -0.739 ± 0.086 | -0.541 ± 0.14
45 | GUCGAGCAAUAUUACGCACA | -1.76 ± 0.21 | -0.707 ± 0.18
46 | GUUUAGCAAUAUUACGAUAG | -3.5 ± 0.32 | -1.88 ± 0.31
47 | CACAAGCAAUAUUACGGCGC | -3.59 ± 0.17 | -1.07 ± 0.12
48 | GGGAAGCAAUAUUACGUGGG | -3.64 ± 0.29 | -2.46 ± 0.24
49 | UCUUAGCAAUAUUACGAGGA | -2.34 ± 0.19 | -1.58 ± 0.19
50 | UAAUAGCAAUAUUACGUUCC |  | -1.52 ± 0.48
51 | AAAUAGCAAUAUUACGUCAC | -4.4 ± 0.42 | -2.53 ± 0.28
52 | CGGCAGCAAUAUUACGGGCU | -3.81 ± 0.22 | -2.16 ± 0.24
53 | GCUUAGCAAUAUUACGAACA | -1.38 ± 0.16 | -0.519 ± 0.19
54 | GAUCAGCAAUAUUACGGUGC | -2.03 ± 0.13 | -0.734 ± 0.11

Row | Sequence | self-splicing fitness (ln) (30 °C) | self-splicing fitness (ln) (37 °C)
55 | AGAAAGCAAUAUUACGAAGA | -2.95 ± 0.24 | -2.27 ± 0.33
56 | UGCAAGCAAUAUUACGUUCC | -3.72 ± 0.33 | -1.43 ± 0.36
57 | AUUCAGCAAUAUUACGCCGG | -1.07 ± 0.13 | -0.848 ± 0.19
58 | UUUUAGCAAUAUUACGACAA | -0.409 ± 0.15 | -0.125 ± 0.17
59 | GCCAAGCAAUAUUACGAGAU | -2.41 ± 0.14 | -2.1 ± 0.17
60 | CGGCAGCAAUAUUACGCUCA | -0.116 ± 0.15 | -0.137 ± 0.16
61 | GAGUAGCAAUAUUACGAAAU | -2.68 ± 0.21 | -1.37 ± 0.23
62 | CUGUAGCAAUAUUACGGAGC |  | -2.55 ± 0.49
63 | ACUAAGCAAUAUUACGAUCU | -0.809 ± 0.092 | 0.314 ± 0.1
64 | CCCAAGCAAUAUUACGAAUG | -3.88 ± 0.22 | -2.8 ± 0.18
65 | GUGGAGCAAUAUUACGAAUA | -4.24 ± 0.47 | -2.33 ± 0.38
66 | UGAGAGCAAUAUUACGUCAG |  | -3.02 ± 0.31
67 | AUUUAGCAAUAUUACGAAGA | -2.11 ± 0.4 | -1.36 ± 0.34
68 | GGAUAGCAAUAUUACGCAUC |  | -1.63 ± 0.38
69 | AAAUAGCAAUAUUACGGUUU | -1.3 ± 0.059 | -0.657 ± 0.076
70 | AAAUAGCAAUAUUACGUGCG | -0.841 ± 0.13 | -0.149 ± 0.15
71 | AAUAAGCAAUAUUACGACGU | 0.233 ± 0.057 | 0.618 ± 0.072
72 | UCGUAGCAAUAUUACGUGGC | -4.04 ± 0.16 | -2.22 ± 0.12
73 | UCCGAGCAAUAUUACGGUAA | -2.21 ± 0.18 | -1.08 ± 0.12
74 | GCCAAGCAAUAUUACGACCG | -3.81 ± 0.22 | -2.01 ± 0.12
75 | GAUUAGCAAUAUUACGUCCA | -2.04 ± 0.21 | 0.198 ± 0.18
76 | UUAAAGCAAUAUUACGACUG | -0.0352 ± 0.08 | 0.184 ± 0.12
77 | GCCGAGCAAUAUUACGAGAG | -3.14 ± 0.3 | -0.44 ± 0.19
78 | GUCAAGCAAUAUUACGACGA | -3.52 ± 0.29 | -1.88 ± 0.18
79 | CUUAAGCAAUAUUACGGCAU | -3.68 ± 0.23 | -3.67 ± 0.34
80 | GAUGAGCAAUAUUACGUUGU |  | -1.69 ± 0.3
